From patent publication US12624096B2, “Anti-tau antibodies and methods of use thereof” (GTInvent Limited, priority 2020, dated 2026)

B1: 3aD3: anti-tau clone, SEQ ID NO: 422 (protein)
scFv: QVQLQESGPSLVKPSQTLSLTCTVSGFSLTSNGVGWVRRAPGKVPEWVGDISSGGKVYGHPALKSRLSITRDTSKSQVSLSVSSVTSEDTAVYYCVRCRDGGVSYGYDSDYWGPGLLVTVSSEGKSSGASGESKVDDQAVVTQPSSVSKSLGQSVSITCSGSSSNVGYGDYVGWFQQVPGSAPKLLIYGVTERASGVPDRFSGSRSGNTATLTISSIQAEDEADYYCASYDDSSGGIFGSGTRLTVLG
modifications: 3aD3 amino acid sequence
B2: CB7: anti-tau clone, SEQ ID NO: 364 (protein)
scFv: QVQLQESGPSLVKPSQTLSLTCTVSGFSLTNYRVGWVRQAPGKALEWVSNIRSGGTTWYNPALKSRLSITADTSKSQVSLSLSSVTTEDTAVYYCARDSSGDLYAYDYWGPGLLVTVSSEGKSSGASGESKVDDQAVLTQPSSVSRSLGQSVSMTCSGSSSNVGYGNYMAWFQQVPGSAPKLLIYGATSRASGVPDRFSGSRSGNTATLTISSLQAEDEADYYCASYDSTSGGVFGSGTRLTVLG
modifications: CB7 amino acid sequence

Columns and labels:
hT40 = hT40 (Homo sapiens, UniProt P10636); assay: Biacore X100 SPR, scAb captured via anti-HuCk, hT40 as analyte; assay type: binding
Outline: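 Captured scAb on anti-HuCk CM5 surface (flow cell 1 as reference) in HBS-EP+, capture set for theoretical RMax 100 RU; hT40 injected multi-cycle (0.15625–100 nM) or single-cycle (6.25–100 nM), 120 s association, 420 s dissociation, glycine pH 2.0 regeneration. Kinetics and affinity from 1:1 binding model fit.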

[1] = molecular target: hT40, dGA, dGAE and truncated tau fragments/peptides (Homo sapiens, UniProt P10636); assay: Binding ELISA for epitope mapping with truncated tau proteins and biotinylated 13mer peptides; conditions: scAbs used as negative controls in thioflavin T assay; data not shown
Description: A series of binding ELISA was performed using various truncated versions of the tau protein and 13mer peptide libraries spanning the entire hT40 molecule for mapping the epitopes of anti-tau scAbs (Full list of protein antigens used is given in Table 14). In general, ELISA plates were coated with 1 μg/ml hT40 or dGA or dGAE or other truncated versions of the protein and in the case of biotinylated peptides, plates were coated with 5 μg/ml Streptavidin followed by 1 μg/ml biotinylated peptide. The plates were blocked with 2% MPBS and scAb samples added at desired starting concentrations and double diluted across the plate. Binding was detected using anti-Human C Kappa HRP conjugated secondary antibody and the resulting immunoreaction was developed and absorbance values measured as described above.
Similarly, dGA binding ‘NS’, ‘S’ and ‘M’ group scAbs were subjected to further antigen binding ELISA using shorter tau proteins and biotinylated 13mer peptides as shown below (FIGS. 10A-F) and (FIGS. 11A-R).
For anti-tau mAb SPR measurements (Biacore X100™) and epitope mapping, the same methodologies described above (see Example 16) were followed.

htau40 = htau40 (Homo sapiens, UniProt P10636); assay: Biacore X100 SPR of anti-tau mAbs on immobilised htau40; assay type: binding; conditions: mAb, Table 27, immobilised hT40
Outline: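 htau40 amine-coupled to a CM5 chip (~250 RU); mAb injected at 0.78–25 nM in HBS-EP+ at 30 μL/min, 120 s association, 600 s dissociation, glycine pH 1.5 regeneration. Kinetics and affinity from 1:1 binding fit with reference-cell subtraction.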

human tau and mouse tau = assay: Western blot of WT, L66+/+ and L1+/+ mouse brain homogenates; assay type: binding; conditions: 20 μg protein, 5-month-old mice
Description: Protein equivalent to 20 μg from each brain extract was separated using 4-20% bis-tris gels and run in 1×MES buffer.
A band is detected in each sample (WT, L66^+/+ and L1^+/+) with an apparent molecular weight of approximately 55 kDa. This band most likely corresponds to endogenous mouse tau which is of a similar size. In the L66^+/+ samples, a second band running at approximately 68 kDa is also detected. The presence of numerous other bands indicates proteolytic truncation of tau within brain homogenates.

tau fragments in plasma = assay: Capture ELISA on transgenic mouse plasma; assay type: binding; conditions: detection scAb, Line66 transgenic model
Description: Plasma samples from WT, L1, L66+/− and L66^+/+ of various ages (1.5-9 months) were taken as described. Mice were terminally anaesthetized using an overdose of sodium pentobarbital and blood was collected through cardiac puncture through a Plastipak syringe pre-rinsed with heparinised saline heparin (10 U/ml) (Heparin sodium salt; Sigma-Aldrich) and transferred into a plastic vial containing lithium heparin anticoagulant (Sarstedt Ltd.) Blood samples, kept on ice for no more than 30 minutes, were centrifuged to obtain plasma at 2000× g for 5 minutes at 6° C. Plasma samples were stored at −20° C.
For mouse plasma capture ELISA, 100 μL capture mAb was coated to the bottom of a black nunc 96 well ‘maxisorp’ plate at 2.5 μg/ml and incubated for 1 hour at 37° C. After washing and blocking as normal, several known standard solutions were set up in triplicate starting at 20 ng/ml of the desired protein before double diluted in the remaining wells. Mouse samples were added to wells in duplicate with a blank in between each sample group. Line1 plasma was diluted 1:10 before addition to plate to account for its high concentration while other samples were diluted 1:2 to account for potential matrix effects. […] The ELISA was developed using SuperSignal ELISA Femto Substrate (Thermo Scientific) and total luminescence was read on Clariostar Plus plate reader (BMG Labtech). […]

[2] = system: tau protein in brain homogenate; assay: Capture ELISA on transgenic mouse brain lysates; assay type: binding; conditions: S1D12 mAb capture; WT, L1, L66+/- and L66+/+
Description: Mouse brain lysates were prepared from wildtype, Line 1, Line 66+/+ and Line 66+/− (Melis et al., 2015, all surplus from Charles River, part of study R0144). All animals were female, 7-8 months old except Line 66+/+ which were 5 months old. […] The L1 cDNA construct (FIG. 23) contains human tau cDNA coding for amino acid residues 296-390 with a signal sequence and related sequences in a murine Thy-1 expression cassette. For brain lysate preparation, half brains were sectioned into four and the individual sections were homogenised in 400 μl of ice cold RIPA buffer (Cell signalling Technology) containing protease and phosphatase inhibitors. Total protein concentrations for individual samples were established by BCA-assay and each sample was subsequently diluted to 1 mg/ml for future experiments.
For capture ELISA, 100 µL S1D12 capture mAb was used to coat a nunc 96 well Maxisorp plate at 1 μg/ml and incubated for 1 hour at 37° C. Plate was washed as previously and then blocked for 1 hour at 37° C., in 2% MPBS. Brain homogenate samples (50 ng total protein) from each mouse type were added to the first wells and double diluted across the plate in PBS. These samples were left to incubate at RT for 1 hour. Various detection scAbs encompassing epitopes of interest were then added to the plate at 1 μg/ml and incubated for 1 h at RT. […]

[3] = '3a' and '3b' scAbs, Table 25, hT40

Chain of hT40 (P10636 1-441 isoform P10636-8): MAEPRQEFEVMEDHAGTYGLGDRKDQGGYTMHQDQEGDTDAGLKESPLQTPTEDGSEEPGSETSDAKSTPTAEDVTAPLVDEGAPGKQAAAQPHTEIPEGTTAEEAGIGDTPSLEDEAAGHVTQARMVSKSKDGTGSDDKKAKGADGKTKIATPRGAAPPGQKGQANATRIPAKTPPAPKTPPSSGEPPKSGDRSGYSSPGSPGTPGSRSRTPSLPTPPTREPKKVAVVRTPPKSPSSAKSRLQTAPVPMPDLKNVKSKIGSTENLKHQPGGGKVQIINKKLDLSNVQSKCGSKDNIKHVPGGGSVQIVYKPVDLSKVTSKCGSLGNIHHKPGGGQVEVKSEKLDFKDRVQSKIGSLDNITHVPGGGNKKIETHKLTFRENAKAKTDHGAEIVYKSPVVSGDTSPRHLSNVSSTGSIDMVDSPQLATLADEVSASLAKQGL
Chain of htau40 (P10636 1-441 isoform P10636-8): as above
Chain of hT40, dGA, dGAE and truncated tau fragments/peptides (P10636 614-708): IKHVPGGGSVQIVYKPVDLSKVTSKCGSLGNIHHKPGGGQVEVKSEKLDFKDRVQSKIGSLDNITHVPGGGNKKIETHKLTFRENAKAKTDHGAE

Molecule	ka (hT40; [3])	kd (hT40; [3])	cross reactivity to dGAE [1]	ka (htau40)	kd (htau40)	ka (hT40; scAb, Table 23, T441 (hT40))	kd (hT40; scAb, Table 23, T441 (hT40))	bands detected in western blot of WT, L66+/+ and L1+/+ brain homogenates (human tau and mouse tau)	cross reaction with endogenous mouse tau protein (tau fragments in plasma)	tau detection in mouse brain homogenate [2]
B1	544400 M⁻¹ s⁻¹	0.01038 s⁻¹	no cross reactivity to dGAE							
B2				2.568e+06 M⁻¹ s⁻¹	0.009451 s⁻¹	133400 M⁻¹ s⁻¹	0.0006936 s⁻¹	show specificity for human tau	does not cross react with endogenous mouse tau protein	hT40 tau was specifically detected in L66 samples
